Measured values from patent US20250186594A1 (BRIGHT PEAK THERAPEUTICS, published 2025).
Numbering of substitutions follows the chain as printed. Names and notes keep the numbering of the source.

B1: IL-18 variant SEQ ID NO: 229 (V11I, C38A, C76A, S105K, C127A) (ligand)
chain: YFGKLESKLSIIRNLNDQVLFIDQGNRPLFEDMTDSDARDNAPRTIFIISMYKDSQPRGMAVTISVKCEKISTLSAENKIISFKEMNPPDNIKDTKSDIIFFQRKVPGHDNKMQFESSSYEGYFLAAEKERDLFKLILKKEDELGDRSIMFTVQNED
B2: IL-18 variant SEQ ID NO: 228 (V11I, C38A, C76A, S105I, C127A) (ligand)
chain: B1 chain with K105I
B3: IL-18 variant SEQ ID NO: 225 (V11I, C38A, S55H, C76A, C127A) (ligand)
chain: B1 chain with S55H, K105S
B4: IL-18 variant SEQ ID NO: 233 (E6K, V11I, C38A, I49R, K53A, T63A, C76A, C127A) (ligand)
chain: B1 chain with E6K, I49R, K53A, T63A, K105S
B5: IL-18 variant SEQ ID NO: 30 with 30 kDa PEG (E6K, V11I, C38A, K53A, T63A, C76A, C127A, C68-30kPEG) (ligand)
chain: B1 chain with E6K, K53A, T63A, K105S
modifications: 30 kDa PEG on Cys 68 (C68-30kPEG)
notes: also called 30 + PEG30; 30 + PEG
B6: IL-18 variant SEQ ID NO: 60 (E6K, C38Q, K53A) (ligand)
chain: B1 chain with E6K, I11V, A38Q, K53A, A76C, K105S, A127C
B7: IL-18 variant SEQ ID NO: 57 (E6K, C38S, K53A) (ligand)
chain: B1 chain with E6K, I11V, A38S, K53A, A76C, K105S, A127C
B8: IL-18 variant SEQ ID NO: 30 with 5 kDa PEG (E6K, V11I, C38A, K53A, T63A, C76A, C127A, C68-5kPEG) (ligand)
chain: B1 chain with E6K, K53A, T63A, K105S
modifications: 5 kDa PEG on Cys 68 (C68-5kPEG)
notes: also called 30 + PEG5
B9: IL-18 variant SEQ ID NO: 60 with 30 kDa PEG (E6K, C38Q, K53A, C68-30kPEG) (ligand)
chain: B1 chain with E6K, I11V, A38Q, K53A, A76C, K105S, A127C
modifications: 30 kDa PEG on Cys 68 (C68-30kPEG)
notes: also called 60 + PEG
B10: IL-18 variant SEQ ID NO: 30 with 20 kDa PEG (E6K, V11I, C38A, K53A, T63A, C76A, C127A, C68-20kPEG) (ligand)
chain: B1 chain with E6K, K53A, T63A, K105S
modifications: 20 kDa PEG on Cys 68 (C68-20kPEG)
notes: also called 30 + PEG20
B11: IL-18 variant SEQ ID NO: 61 with 30 kDa PEG (E6K, C38A, K53A, C76A, C68-30kPEG) (ligand)
chain: B1 chain with E6K, I11V, K53A, K105S, A127C
modifications: 30 kDa PEG on Cys 68 (C68-30kPEG)
notes: also called 61 + PEG
B12: IL-18 variant SEQ ID NO: 30 with 10 kDa PEG (E6K, V11I, C38A, K53A, T63A, C76A, C127A, C68-10kPEG) (ligand)
chain: B1 chain with E6K, K53A, T63A, K105S
modifications: 10 kDa PEG on Cys 68 (C68-10kPEG)
notes: also called 30 + PEG10
B13: IL-18 variant SEQ ID NO: 57 with 30 kDa PEG (E6K, C38S, K53A, C68-30kDPEG) (ligand)
chain: B1 chain with E6K, I11V, A38S, K53A, A76C, K105S, A127C
modifications: 30 kDa PEG on Cys 68 (C68-30kDPEG)
notes: also called 57 + PEG30; 57 + PEG
B14: IL-18 variant SEQ ID NO: 59 with 30 kDa PEG (E6K, C38A, K53A, C68-30kDPEG) (ligand)
chain: B1 chain with E6K, I11V, K53A, A76C, K105S, A127C
modifications: 30 kDa PEG on Cys 68 (C68-30kDPEG)
notes: also called 59 + PEG30; 59 + PEG

molecular target: T1, IL-18 receptor (IL-18R) on HEK-Blue IL18R reporter cells (UniProt Q13478 19-541; O95256 20-599, limits assumed); test: cell-based or functional assay
T1 sequence (looked up) 1: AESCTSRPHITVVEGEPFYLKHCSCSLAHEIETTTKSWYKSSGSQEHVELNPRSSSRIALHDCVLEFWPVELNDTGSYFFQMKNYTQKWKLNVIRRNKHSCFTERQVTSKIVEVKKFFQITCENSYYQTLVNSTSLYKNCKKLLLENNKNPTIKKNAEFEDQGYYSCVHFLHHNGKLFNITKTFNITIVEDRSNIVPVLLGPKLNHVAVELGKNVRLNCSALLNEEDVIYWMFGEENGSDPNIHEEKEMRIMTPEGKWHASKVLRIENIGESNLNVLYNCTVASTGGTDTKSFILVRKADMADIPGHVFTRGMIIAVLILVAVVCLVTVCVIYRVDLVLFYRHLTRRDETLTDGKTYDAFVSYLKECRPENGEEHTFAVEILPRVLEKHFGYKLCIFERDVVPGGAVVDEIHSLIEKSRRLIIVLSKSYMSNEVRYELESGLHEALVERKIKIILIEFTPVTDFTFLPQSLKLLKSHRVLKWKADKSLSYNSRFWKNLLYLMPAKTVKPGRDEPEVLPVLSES
T1 sequence (looked up) 2: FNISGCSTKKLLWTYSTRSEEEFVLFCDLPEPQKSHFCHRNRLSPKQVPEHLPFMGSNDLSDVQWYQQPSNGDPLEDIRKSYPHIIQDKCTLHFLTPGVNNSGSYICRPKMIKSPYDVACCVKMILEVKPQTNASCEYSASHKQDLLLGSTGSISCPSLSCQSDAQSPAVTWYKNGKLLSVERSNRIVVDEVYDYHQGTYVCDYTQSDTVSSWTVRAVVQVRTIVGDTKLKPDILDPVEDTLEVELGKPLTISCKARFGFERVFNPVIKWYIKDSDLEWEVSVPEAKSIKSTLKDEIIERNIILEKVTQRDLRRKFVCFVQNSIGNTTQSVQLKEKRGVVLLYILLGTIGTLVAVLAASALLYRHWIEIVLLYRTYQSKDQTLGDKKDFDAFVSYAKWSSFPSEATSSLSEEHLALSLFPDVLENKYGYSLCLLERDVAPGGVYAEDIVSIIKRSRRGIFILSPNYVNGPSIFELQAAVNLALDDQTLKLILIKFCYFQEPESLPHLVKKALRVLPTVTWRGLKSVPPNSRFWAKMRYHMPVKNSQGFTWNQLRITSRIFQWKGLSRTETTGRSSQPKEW

Row | Binder | EC50, HEK-Blue IL18R reporter [nM]
1 | B1 | 7.73
2 | B2 | 5.37
3 | B3 | 3.14
4 | B4 | 0.04
5 | B5 | 0.23
6 | B6 | 0.203
7 | B7 | 0.53

molecular target: T2, IL-18Rα/β heterodimer (Fc fused human IL-18Rα mixed with Fc fused human IL-18Rβ) (human, UniProt Q13478 19-329; O95256 20-356, limits assumed); test: SPR, Fc-IL-18Rα/β captured, heterogeneous ligand fit
T2 construct: Alpha and beta Fc fusions were mixed and pre-incubated for 30 min before capture on anti-human IgG; also called alpha/beta heterodimer IL-18 receptor; heterodimeric human IL-18 receptor alpha (CD218a) and IL-18R accessory protein (IL-18RAP/CDw218b); not shown: Fc
T2 sequence (looked up) 1: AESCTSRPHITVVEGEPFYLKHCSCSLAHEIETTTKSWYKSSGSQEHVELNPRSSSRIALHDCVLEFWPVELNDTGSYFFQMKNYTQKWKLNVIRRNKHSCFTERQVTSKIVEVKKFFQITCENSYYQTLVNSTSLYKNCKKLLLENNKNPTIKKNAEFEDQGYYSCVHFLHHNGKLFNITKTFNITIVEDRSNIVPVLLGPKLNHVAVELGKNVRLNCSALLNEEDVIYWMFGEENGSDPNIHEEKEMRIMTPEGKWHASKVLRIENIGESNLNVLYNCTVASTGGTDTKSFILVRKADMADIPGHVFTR
T2 sequence (looked up) 2: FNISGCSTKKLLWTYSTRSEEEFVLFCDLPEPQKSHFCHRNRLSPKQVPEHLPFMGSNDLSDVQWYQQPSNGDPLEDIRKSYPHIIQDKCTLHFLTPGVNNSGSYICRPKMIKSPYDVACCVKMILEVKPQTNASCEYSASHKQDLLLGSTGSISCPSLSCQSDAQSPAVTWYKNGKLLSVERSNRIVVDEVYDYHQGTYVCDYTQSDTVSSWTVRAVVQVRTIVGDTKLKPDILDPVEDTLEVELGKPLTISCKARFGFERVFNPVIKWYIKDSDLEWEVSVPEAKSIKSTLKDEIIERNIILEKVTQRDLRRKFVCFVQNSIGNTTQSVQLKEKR
Protocol: (§1) The interaction of the wild type and of modified IL-18 polypeptides with human IL-18 receptor subunits are measured with Surface Plasmon Resonance (SPR) technology. Anti-human IgG antibodies are bound by amine coupling onto a CM5 chip to capture 6 µg/mL of Fc fused human IL-18Rα, […] of Fc fused human IL-18Rβ, or […] of Fc fused human IL-18BP isoform a (IL-18BPa) for 30 min before capture. In other settings, […] of alpha and beta IL-18 receptors are mixed and pre-incubated for 30 min before capture of the alpha/beta heterodimer IL-18 receptor.
(§2) The kinetic binding of the IL-18 analytes are measured with a Biacore 8K instrument in two fold serial dilutions starting at […] down to 0.98 nM. Regeneration of the surface back to amine coupled anti IgG antibody is done after every concentration of analyte. To measure the protein association to the receptors, the samples are injected with a flow rate of […] for 60 s, followed by 300 s buffer only to detect the dissociation. The used running buffer is 1×PBS with 0.05% Tween20. The relative response units (RU, Y-axis) are plotted against time (s, X-axis) and analyzed in a kinetic 1:1 binding model for the monomer receptor binding and for the binding to the IL-18BP. A kinetic heterogenous ligand fit model is applied for the alpha/beta heterodimer binding.

Row | Binder | Kd [nM] | koff [s⁻¹] | kon [M⁻¹ s⁻¹]
8 | B8 | 2.2 | 0.000594 | 269000
9 | B9 | 13.3 | 0.000789 | 68300
10 | B5 | 15.7 | 0.000618 | 39400
11 | B10 | 5.49 | 0.000637 | 116000
12 | B11 | 15.5 | 0.000589 | 38100
13 | B6 | 0.49 | 0.000589 | 1.21e+06
14 | B12 | 8.7 | 0.00105 | 120000
15 | B13 | 23 | 0.000787 | 33800
16 | B7 | 2.3 | 0.000816 | 535000
17 | B14 | 8.02 | 0.00058 | 84500

molecular target: T3, Fc fused human IL-18Rα (human, UniProt Q13478 19-329, limits assumed); test: SPR, Fc-IL-18Rα captured, 1:1 fit
T3 construct: also called IL-18Rα monomer; human IL-18 receptor alpha (CD218a); not shown: Fc
T3 sequence (looked up): T2 sequence (looked up) 1
Protocol: as §1, §2

Row | Binder | Kd [nM] | koff [s⁻¹] | kon [M⁻¹ s⁻¹]
18 | B8 | 158 | 0.0748 | 475000
19 | B9 | 345 | 0.0195 | 66300
20 | B5 | 770 | 0.0842 | 125000
21 | B10 | 379 | 0.0805 | 213000
22 | B11 | ~1000 | 0.0288 | 28700
23 | B6 | 9.85 | 0.0102 | 1.03e+06
24 | B12 | 239 | 0.0779 | 326000
25 | B13 | 701 | 0.0267 | 37900
26 | B7 | 75 | 0.0133 | 95200
27 | B14 | 352 | 0.0264 | 74600
